Test results taken from US20220332804A1 (CSL INNOVATION, published 2022).
Residue numbers refer to the chain shown, from its start.

What was measured:
Assay in all cases: SPR, antibody captured, C2 as analyte;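 also: biacore SPR at 37 °C, anti-C2 mAbs captured via goat anti-human IgG on CM5 chips, double-referenced sensorgrams fit to a 1:1 kinetic or steady-state model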
human C2 T483A = target: T1, human C2 T483A (human, UniProt P06681 21-752)
T1 sequence: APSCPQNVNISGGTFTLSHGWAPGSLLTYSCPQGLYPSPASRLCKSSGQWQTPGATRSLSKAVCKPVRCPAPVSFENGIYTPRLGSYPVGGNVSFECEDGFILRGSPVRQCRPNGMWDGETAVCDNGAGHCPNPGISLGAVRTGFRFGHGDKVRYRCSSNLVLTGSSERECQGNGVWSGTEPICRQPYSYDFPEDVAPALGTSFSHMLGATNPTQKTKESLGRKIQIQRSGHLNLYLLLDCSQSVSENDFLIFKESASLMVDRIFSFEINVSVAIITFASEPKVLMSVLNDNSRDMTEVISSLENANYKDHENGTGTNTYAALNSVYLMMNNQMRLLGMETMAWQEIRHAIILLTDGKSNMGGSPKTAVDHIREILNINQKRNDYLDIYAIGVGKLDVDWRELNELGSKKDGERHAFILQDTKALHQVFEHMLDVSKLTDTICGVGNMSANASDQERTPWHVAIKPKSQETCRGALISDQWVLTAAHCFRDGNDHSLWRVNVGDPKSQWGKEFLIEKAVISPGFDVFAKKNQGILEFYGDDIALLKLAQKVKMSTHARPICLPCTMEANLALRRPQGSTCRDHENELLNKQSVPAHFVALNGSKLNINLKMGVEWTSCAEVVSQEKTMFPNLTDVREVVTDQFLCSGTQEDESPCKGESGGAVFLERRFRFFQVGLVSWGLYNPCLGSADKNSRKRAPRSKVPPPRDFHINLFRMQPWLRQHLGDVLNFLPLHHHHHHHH

human C2 E490A = target: T2, human C2 E490A (human, UniProt P06681 21-752)
T2 sequence: T1 sequence with A463T, E470A

human C2 K711A = target: T3, human C2 K711A (human, UniProt P06681 21-752)
T3 sequence: T1 sequence with A463T, K691A

human C2 R714A = target: T4, human C2 R714A (human, UniProt P06681 21-752)
T4 sequence: T1 sequence with A463T, R694A

B1: RF16-226 (antibody, human IgG4 S228P, lambda)
heavy: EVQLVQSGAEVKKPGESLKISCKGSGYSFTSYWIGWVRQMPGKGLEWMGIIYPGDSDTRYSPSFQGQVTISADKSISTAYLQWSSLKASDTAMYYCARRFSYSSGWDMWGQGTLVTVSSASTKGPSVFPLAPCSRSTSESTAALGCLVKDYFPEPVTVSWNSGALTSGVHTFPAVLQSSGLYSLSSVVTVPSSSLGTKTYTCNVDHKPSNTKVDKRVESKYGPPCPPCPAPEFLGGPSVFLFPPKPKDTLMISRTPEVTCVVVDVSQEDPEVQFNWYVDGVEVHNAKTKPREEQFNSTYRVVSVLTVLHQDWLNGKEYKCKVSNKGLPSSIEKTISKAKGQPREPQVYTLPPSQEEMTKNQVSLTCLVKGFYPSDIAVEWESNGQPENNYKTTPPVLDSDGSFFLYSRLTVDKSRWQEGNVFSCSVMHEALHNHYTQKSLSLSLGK
light: SYELTQPPSVSVSPGQTARITCSGDALTSKYVAWYQQKSGLAPLLVIYEDTRRPSGIPAKFSGSSSGSVATLTISGAHGDDEADYYCYSTDASGHQRVFGGGTKLTVLSQPKAAPSVTLFPPSSEELQANKATLVCLISDFYPGAVTVAWKADGSPVKAGVETTKPSKQSNNKYAASSYLSLTPEQWKSHRSYSCQVTHEGSTVEKTVAPTECS
notes: pH-dependent anti-C2 antibody from a phage display library; also called WT
For B1, the Kd (human C2 T483A) was 5.5 nM, the Kd (human C2 E490A) was 15.6 nM and the Kd (human C2 K711A) was 49.6 nM. For the same binder, the Kd (human C2 R714A) was 53 nM.
